Results published in patent CN116239684A (WUHAN ABCLONAL CO LTD, dated 2023).
Residue numbers refer to the chain shown, from its start.

B1: 兔单克隆抗体2G2 (rabbit monoclonal antibody 2G2 against human calreticulin) (antibody, V domains shown)
VH: QEQLEESGGGLVQPEGSLTLTCTASGFSINNNYWICWVRQAPGKGLEWVGCISIADNSNTYYATWAKGRVTISKTSSTTVTLQMTSLTAADTATYFCARGPAVISFNLWGPGTLVTVSS
VL: AQVLTQTPSSTSAAVGGTVTINCQASESVYGNNRLAWYQQKPGQPPKRLIYDASTLASGVPSRFSGSGSGKQFTLTMSGVQCDDAATYYCIGHFYSGINSISFGGGTEVVVKG
notes: Recombinant rabbit IgG made in 293F cells; also called 2G2抗体; 兔抗人CALR单克隆抗体2G2
B2: 兔单克隆抗体3B3 (rabbit monoclonal antibody 3B3 against human calreticulin) (antibody, V domains shown)
VH: QSLEESGGGLVQPEGSLTLTCTASGFSFSSSYWICWVRQAPGKGLEWIGCISIDDNSNTYYASWAKGRVTISKTSSTTVTLQMTSLTAADTATYFCARGPGIIFYNLWGPGTLVTVSS
VL: B1 VL with G31N, T55K, S65K, S96T, G97S, I101V, S102T
notes: Recombinant rabbit IgG made in 293F cells; also called 3B3抗体; 兔抗人CALR单克隆抗体3B3

Molecular target: 重组人CALR融合蛋白 (recombinant human calreticulin fusion protein, residues 18-203, Example 1) (human, UniProt P27797 18-203)
Sequence (P27797 18-203): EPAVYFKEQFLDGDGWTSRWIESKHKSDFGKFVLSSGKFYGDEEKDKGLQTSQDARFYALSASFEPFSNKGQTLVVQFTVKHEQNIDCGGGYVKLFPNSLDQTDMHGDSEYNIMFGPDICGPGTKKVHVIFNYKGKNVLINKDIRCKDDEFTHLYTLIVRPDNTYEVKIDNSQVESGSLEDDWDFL
Experiment: SPR, Biacore 3000, curve fitting

Binder	Kd [nM]
B1	4.88
B2	4.34
